Data from patent publication US20210009713A1 (MIDWESTERN UNIVERSITY, published 2021).
Read-outs that look alike come from different tables or passages of the source.

T1: aspartyl (asparaginyl) β-hydroxylase (ASPH) (UniProt Q12797 75-758, limits assumed)
T1 construct: also called ASPH protein
T1 sequence (looked up): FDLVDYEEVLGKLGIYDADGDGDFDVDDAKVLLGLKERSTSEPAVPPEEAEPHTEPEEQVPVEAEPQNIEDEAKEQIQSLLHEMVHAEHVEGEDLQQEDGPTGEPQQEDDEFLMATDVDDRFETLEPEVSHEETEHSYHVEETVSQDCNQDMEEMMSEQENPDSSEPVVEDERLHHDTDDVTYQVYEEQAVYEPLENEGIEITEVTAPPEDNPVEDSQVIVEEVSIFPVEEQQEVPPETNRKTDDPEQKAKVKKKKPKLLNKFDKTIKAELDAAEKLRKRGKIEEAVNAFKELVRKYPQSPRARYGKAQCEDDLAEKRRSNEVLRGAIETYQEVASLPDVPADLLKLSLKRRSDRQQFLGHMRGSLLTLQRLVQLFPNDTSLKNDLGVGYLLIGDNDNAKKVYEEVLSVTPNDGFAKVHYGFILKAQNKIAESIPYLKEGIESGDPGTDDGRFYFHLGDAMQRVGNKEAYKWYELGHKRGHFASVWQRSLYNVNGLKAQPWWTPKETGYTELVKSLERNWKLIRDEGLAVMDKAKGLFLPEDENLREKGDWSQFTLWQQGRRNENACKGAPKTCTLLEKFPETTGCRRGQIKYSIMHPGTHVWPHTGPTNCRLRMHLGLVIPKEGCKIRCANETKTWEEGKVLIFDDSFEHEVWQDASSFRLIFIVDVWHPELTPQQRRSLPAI


Biological target: T1, aspartyl (asparaginyl) β-hydroxylase …
Assay: SPR, antibody captured via Protein G, ASPH as analyte
Method: The interaction between ASPH and a set of 6 antibodies were characterized by Essai Sciences LLC (Stillwater, Okla.) on a SensiQ Pioneer SPR Platform. The COOH2 sensor chip, which contains a planar dextran surface, was used for target immobilization. The buffer system was 10 mM HEPES, pH 7.4, 150 mM NaCl, and 0.01% Tween-20.
All channels of a COOH2 sensor chip were activated with a five-minute injection of 40 mM EDC and 10 mM NHS. Protein G was then injected across channels 1 and 2. 1 M ethanolamine, pH 8.0 was then injected across all three channels. Approximately 1000 response units of Protein G were captured on both channels 1 and 2 (FIG. 18). For each antibody-ASPH interaction, the antibody was injected on channel 1, leaving channels 2 and 3 as a Protein G reference and empty channel reference, respectively. After antibody capture, ASPH was injected at a single concentration. Following injection of ASPH, all three channels were injected with 10 mM NaOH for one minute to regenerate the Protein G surface. This was done twice for each antibody, at each tested concentration of ASPH.

Row | Kd [nM] | koff [s⁻¹] | kon [M⁻¹ s⁻¹] | Kd (record 2) [nM] | Binder
1 | 144 | 0.00243 | 16800 | – | 5H4/5K3 (antibody, V domains shown, The entries are translated variable regions that still carry the leader and the start of the constant region (GQPK... / GDPV...)) VH: QSLEESGGDLVKPGASLTLTCKASGFDFSSNAMCWVRQAPGKGPEWIACIDNGDGSTDYATWAKGRFTISKTSSTTVTLQMTSLTAADTATYFCTRNFNLWGQGTLVTVSS VL: AQVLTQTASSVSAAVGGTVTISCQSSQSVYDNNRLAWFQQKPGQPPKLLIYETSKLASGVPLRFKGSGSGTQFTLTISDLECDDAATYYCLGSYSGYIYTFGGGTEVVVKG
2 | 61.9 | 0.00185 | 29800 | 60 | 9H2/9K3 (antibody, part only; not given: kappa light chain, V domains shown, part only) VH: QSLEESGGDLVKPGASLTLTCKASGFDFISNAMCWVRQAPGKGPEWIACIDNGDGSTDYATWAKGRFTISKTSSTTVTLQMTSLTAADTATYFCTRNFNLWGQGTLTVSSGQPKAPSVFPLAP
